# Results taken from publication PMC5146279, “Atomic structure of the innexin-6 gap junction channel determined by cryo-EM” (Nature Communications, 2016).
# Key:
# [1] = target: the molecule itself; assay: cryo-EM structure; INX-6 hemichannel (docked class) by single-particle analysis, 74,398 particles, C8 symmetry, 3.3 Å; sample after GraDeR, 10 mM Tris pH 7.5, 500 mM NaCl
# [2] = target: the molecule itself; assay: cryo-EM structure; INX-6 gap junction channel by single-particle analysis, 35,608 particles, D8 symmetry, 3.6 Å; sample after GraDeR, 10 mM Tris pH 7.5, 500 mM NaCl
protein,measurement,setting,value
"Caenorhabditis elegans innexin-6 (INX-6) wild type (natural protein, UniProt Q9U3N4 1-389, looked up, Innexin-6 (INX-6), C. elegans, wild type; Eight copies form a hemichannel and 16 copies the docked gap junction channel; also called INX-6 WT; INX-6 hemichannel; source: Sf9 cells infected with recombinant virus, purified (Ni-NTA, tag digested, gel filtration, GraDeR); not shown: GFP, C-terminal, cleaved; His8, C-terminal, cleaved; copies: 16) MASQVGAINSVNALISRVFVQPKGDLADRLNSRVTVVILAVSSALLLSSHFIGDPITCWTPAQFNAQWVNFVNQYCFVHGTYFVPLDQQLAFEEEERTKVSIQYYQWVPYVFALQAFLFYIPRFIWKAMIAYSGYDLAAAVKYVDRFWSENRDKDDKFKTRLAAFEGRPSVYIWDGIRLARKKRSRNMALFYTLSTVWQAVNAWIQFYILTQLLDSSIYTLWGPSILGDLLQGNDWQTTGHFPRIVHCDFNRRRPASVQLDTVLCVLTLNIYYEKLFIFLWFWLVFVAVVSTVNCFKWIYYLCNKTKAQKTIKNYLSTAPIKSTISDDQFFSALGEDGLFIMDQMALNLGDIPASYLTISMRNICQDFIESEDYIDEERTPFVKSIKHT",stoichiometry N,[1],8
same,stoichiometry N,[2],16
